Laboratory results taken from article PMC7311918.

Molecular target: SARS-CoV-2 S 2P trimer (S ectodomain, residues 16-1206) (SARS-CoV-2) (UniProt P0DTC2)
Assay: SEC-MALS

Substance: SARS-CoV-2 S 2P trimer (S ectodomain, residues 16-1206) (from UniProt P0DTC2 16-1206) (natural protein)
- stoichiometry N: 3
